Assay results reported in US9505841B2, “Use of an anti-Ang2 antibody” (Samsung Electronics Co., Ltd., priority 2013, dated 2016).

Legend:
Ang2-Tie2 binding = target: T1, Ang2-Tie2 binding (Homo sapiens, UniProt O15123); assay: Ang2-Tie2 binding competition ELISA; conditions: antibody 400 nM to 0.001 nM; 400 ng/ml FLAG-tagged hAng2; hTie2-Fc coated plate
T1 construct: purchased R&D Systems (hTie2-Fc)
T1 sequence (O15123 19-496): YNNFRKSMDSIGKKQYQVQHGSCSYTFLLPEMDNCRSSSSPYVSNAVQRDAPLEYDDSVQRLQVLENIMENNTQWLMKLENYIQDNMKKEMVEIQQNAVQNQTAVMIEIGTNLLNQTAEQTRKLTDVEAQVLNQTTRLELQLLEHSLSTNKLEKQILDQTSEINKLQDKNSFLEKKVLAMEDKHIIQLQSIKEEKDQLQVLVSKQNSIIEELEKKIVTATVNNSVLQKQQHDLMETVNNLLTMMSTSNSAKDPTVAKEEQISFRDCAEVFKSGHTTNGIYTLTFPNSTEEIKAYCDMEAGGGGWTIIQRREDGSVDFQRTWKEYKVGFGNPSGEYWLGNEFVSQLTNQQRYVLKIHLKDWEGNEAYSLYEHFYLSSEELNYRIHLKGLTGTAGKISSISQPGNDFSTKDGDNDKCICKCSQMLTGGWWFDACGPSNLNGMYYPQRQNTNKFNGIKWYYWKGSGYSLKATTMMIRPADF
Description: Ang2-Tie2 binding competition ELISA was conducted using the antibody binding to Ang2 prepared in Example 2-1 above.
More specifically, MaxiSorp™ flat-bottom plate (Nunc) of 96-well was coated with hTie2-Fc (R&D Systems) which is a protein bound with 4 ug (microgram)/ml of Fc of human IgG1. After that, the plate was washed five times with 0.05% (v/v) Tween-20-containing PBS (phosphate buffer saline) and then blocked with 1% (v/v) BSA (bovine serum albumin; Sigma)-containing PBS at a room temperature for 2 hour.
For Ang2:Tie2 competition ELISA, each anti-Ang2 antibody obtained in Example 2 was placed at various concentrations of 400 nM to 0.001 nM into each well coated with the hTie-2/Fc fusion protein along with 1% (v/v) BSA and 400 ng/ml of a FLAG-tagged hAng2 and then, the plate was allowed to react at a room temperature for 2 hours and washed five times with PBST. […] Lastly, 100 ul (microliter) of TMB substrate (Cell Signaling) was added to each well of the plate to induce color development for 3 min. and then, the reaction was ceased by the addition of 100 ul of Stop solution (Cell Signaling) and OD450 values were measured on a plate reader (Molecular Devices). […]

LLC tumor = assay: Co-administration of anti-Ang2 antibody and cisplatin in LLC lung cancer animal model; assay type: in vivo, mouse; conditions: LLC mice; antibody 10 mg/kg i.p. every three days, five times; cisplatin 3 mg/kg i.p. once; control Fc of IgG1
Description: The synergistic effect of co-treatment of antibody 10D6 and cisplatin was examined.
In particular, referring to Example 14, LLC tumor cells were subcutaneously injected into mice. When the size of tumors reached 50˜100 mm^3, anti-Ang2 antibody 10D6 was injected at the concentration of 10 mg/kg via an intraperitoneal injection every three days a total of five times. After administering antibody 10D6 twice, 3 mg/kg of cisplatin (Sigma-Aldrich) was intraperitoneally injected once. The size of tumor (V) was calculated using the following formula: Volume (V)=(width)2×length/2
For comparison, the same experiment was performed to a control group treated with Fc of IgG1 and a comparative group treated with antibody 4H10.
In addition, an experiment was performed to examine whether the synergistic effect obtained by co-administration of 10D6 and cisplatin as described above is due to the increased transporting efficiency of the administered cisplatin induced by the vascular normalization by treatment of 10D6. Cisplatin binds to DNA in a living body and induces crosslinking, thereby inducing cell death. Rat monoclonal anti-Cisplatin modified DNA (CP9/19) antibody (1:200, Abcam), which is capable of binding to DNA modified by cisplatin in tumor frozen sections, and hamster anti-CD31 antibody (1:200, Millipore), were used for immunofluorescence staining, and fluorescence images were obtained using LSM5 confocal microscope (Zeiss). In addition, to examine necrotic region, the tumor frozen sections were stained with H&E according to standard protocol, and then, Eosin+ cell region in tumor was observed. The obtained results are illustrated in FIG. 18C.

[1] = system: LLC (Lewis Lung Carcinoma); assay: LLC tumor growth model; assay type: in vivo, mouse; conditions: LLC in C57BL/6 mice; 10 mg/kg intraperitoneal three times a week; control Fc of IgG1
Description: To see the tumor growth inhibitory effects of Ang2 antibody, a […] Xenograft model using a LLC (Lewis Lung Carcinoma) was employed.
LLC cells (ATCC) were cultured using 10% FBS (Gibco)-supplemented DMEM (Gibco) media. 1×10^6 of LLC cells were re-suspended in 100 ul of PBS (Gibco) and then subcutaneously injected into 6˜8-week-old C57BL/6 mice (Jackson Laboratory) anesthetized with 1˜2% isoflurane.
When the size of tumors reached 50˜100 mm^3, anti-Ang2 antibody (10D6) was injected at the concentration of 10 mg/kg via an intraperitoneal injection three times a week and the size of the tumors was measured.
The size of tumor (V) was calculated using the following formula: Volume (V)=(width)2×length/2
For comparison, the same experiment was performed to a control group treated with Fc of IgG1 and a comparative group treated with antibody 4H10 (refer to Example 3).

B1: 4H10: anti-Ang2 antibody inhibiting Ang2-Tie2 binding; heavy chain variable region SEQ ID NO: 12, light chain variable region SEQ ID NO: 13 (antibody, V domains shown)
VH: EVQLLESGGGLVQPGGSLRLSCAASGFTFSSYDMSWVRQAPGKGLEWVSLISPDSSSIYYADSVKGRFTISRDNSKNTLYLQMNSLRAEDTAVYYCAKDLISFWRGGFDYWGQGTLVTVSS
VL: QSVLTQPPSASGTPGQRVTISCSGSSSNIGSNYVNWYQQLPGTAPKLLIYADSNRPSGVPDRFSGSKSGTSASLAISGLRSEDEADYYCGSWDYSLSGYVFGGGTKLTVLG
modifications: Synthetic (heavy chain variable region of 4H10); Synthetic (light chain variable region of 4H10)
- inhibition of Ang2-Tie2 binding (Ang2-Tie2 binding): inhibiting Ang2-Tie2 binding
- tumor size decreased by, compared to the control (LLC tumor): 29.2%
- inhibition of growth of the tumor compared to the control group [1]: about 27%
